Article PMC5923229
pKd: −log10 of the molar value.

Legend:
[1] = target: H46R/H48Q SOD1 artificial copper site mutant (UniProt P00441); experiment: native MS; nanoESI of SOD1 at different protein concentrations in 200 mM NH4OAc (pH 6.8), gentle conditions; monomer and dimer signal compared; dimer to monomers
[2] = target: H46R/H48Q SOD1 with ebselen conjugated at Cys111 (UniProt P00441); experiment: as above

| pKd [1] | pKd [2] | Substance |
| --- | --- | --- |
| 5.28 |  | H46R/H48Q SOD1 artificial copper site mutant (from UniProt P00441 2-154) (enzyme) |
|  | 6.66 | H46R/H48Q SOD1 with ebselen conjugated at Cys111 (from UniProt P00441 2-154) (enzyme) |
